Test results: doi:10.1101/2021.04.18.440338

Key:
[1] = molecular target: Rabbit skeletal muscle actin (RMA), as filaments (rabbit) (UniProt P68135)
[2] = molecular target: GST-549-SNAP-N-IQGAP1 (GST-SNAP-N-IQGAP1-6His, 1-522) (UniProt P46940); assay: single-molecule step photobleaching
[3] = molecular target: Rabbit skeletal muscle actin (RMA), as filaments (rabbit) (UniProt P68135); assay: single-molecule microfluidics-assisted TIRF microscopy

Row | Substance | barbed end depolymerization rate in mf-TIRF: IC50 of N-IQGAP1 [1] | stoichiometry N [2] | average dwell time on filament sides [3] | koff [3]
1 | 6His-N-IQGAP1 (1-522) (from UniProt P46940 1-522) (domain or fragment) | 0.3 nM | – | – | –
2 | GST-549-SNAP-N-IQGAP1 (GST-SNAP-N-IQGAP1-6His, 1-522) (from UniProt P46940 1-522) (domain or fragment) | – | 2 | 6.8 min | 0.0025 s⁻¹
